Drawing on the RNAGym collection of RNA variant scans (doi:10.7554/elife.90254), this text covers self-cleavage for 167 variants.

B1: OR4K15 (parent)
chain: GUUAACGGUCAUAGGCCAUGGAAACUAGGAGCACCAUUUCGCUGCCAGUGAAGAAAUGAACAAAGAAAAUCUGGGCCAGGCAGGCAUCAAAAGAAAUAGUCUUGCGCUCAACCAGAAAGUCUGUAAUCAUUUUAAGGGUA

The data set covers variants of B1. Put plainly: self-cleavage, relative activity (ratio to wild type); higher = more cleavage; in vitro, sequencing; the parent is a self-cleaving ribozyme.
Take A13U U72C: the self-cleavage is 0.49.
To G15C A91U belongs 0.88; to A13G A90U, 0.25.
The figure for C16A U124A is 0.4; for U12C A89U it is 1.82.
The figure for U12C A89G is 1.35.
Regarding G14A G106A, the self-cleavage turned out to be 0.02.
To U12C A114U belongs 0.14; to U12C A114G, 0.19; to A18C A60G, 2.54.
For A13G U102C, the self-cleavage was found to be 1.18.
To G14A U122A belongs 1.16; to G14A U43C, 0.99.
To G14U A126G belongs 1.1; to C16U U97C, 1.23; to A13G A62G, 1.25.
To A13G U38A belongs 0.78; to A13G C40U, 1.03; to U12C A60G, 1.34.
Regarding A13U A63G, the self-cleavage was found to be 1.3.
The figure for A13U A63U is 1.13; for G15C A24G it is 0.88.
A13U A82G: the self-cleavage was determined as 0.84.
To G14C A118U belongs 0.78; to G15C A94G, 0.33; to A13U U124C, 1.37.
To G15U A62G belongs 2.71; to U12C A69G, 1.68; to A13G C105A, 0.15.
Turning to A13G A125U, the self-cleavage was determined as 0.88.
As to U12C U139C, the self-cleavage amounted to 1.41.
On to G14C A51G, for which the self-cleavage was 1.01.
To G14A U26A belongs 1.2; to A18C A23G, 0.81.
As for G14A A36G, the self-cleavage came out at 1.17.
For C17U A33G, the self-cleavage turned out to be 1.07.
As for G14U A96U, the self-cleavage was found to be 1.13.
The figure for A13U G79A is 0.19.
To U12G belongs 1.33; to G15A U139C, 1.3; to G15C U39C, 1.26.
On to C16A A18G, for which the self-cleavage was 1.18.
As for G14A A95G, the self-cleavage turned out to be 1.24.
Consider A18C A22U, for which the self-cleavage was 1.71.
For A18C A22G, the self-cleavage was 1.85.
As to C16G U49C, the self-cleavage turned out to be 0.92.
Take A13G A78U: the self-cleavage worked out at 0.6.
As for C16U A129C, the self-cleavage turned out to be 1.3.
To A13U U43C belongs 1.24; to G14A A22G, 0.51.
To C17A G73A belongs 0.16; to G14U G48A, 1.52; to A13G A114G, 0.31.
The figure for U12C U103C is 1.41.
Regarding A13G G53A, the self-cleavage came out at 1.11.
The figure for C16G A59U is 1.17; for A13U A91U it is 1.34.
To U12C G99A belongs 0.97; to G14A A129U, 0.41.
With C16G A78U, the self-cleavage came out at 0.66.
Turning to C16G A78G, the self-cleavage amounted to 0.55.
The figure for A13U A89G is 1.51.
For A18C A62C, the self-cleavage amounted to 1.25.
To A18C A62G belongs 1.36; to A13G A54G, 0.81.
The figure for A13G A54U is 0.74; for C16A A126G it is 1.2; for U12C A55G it is 1.34.
In the case of A13G A116U, the self-cleavage was 0.41.
As to A13U A47G, the self-cleavage stood at 0.93.
On to G14A A114U, for which the self-cleavage was found to be 0.01.
To G14A A91G belongs 1.67; to U12G U102C, 1.11.
The figure for G14A U127C is 0.28; for G14C A30G it is 1.66; for G14C A18G it is 1.59.
The figure for A13U A52U is 1.26.
As to A13U A52G, the self-cleavage came out at 1.18.
Turning to G15A U70A, the self-cleavage is 0.96.
As for A13U A125U, the self-cleavage is 1.71.
As for G14C A59G, the self-cleavage stood at 1.46.
In the case of C17U A110U, the self-cleavage came out at 1.55.
The figure for C17U A117G is 1.84.
Consider U12C A118U, for which the self-cleavage stood at 0.22.
The figure for A13G U124C is 0.57.
In the case of C16G A66G, the self-cleavage worked out at 1.14.
As for A13G A51G, the self-cleavage worked out at 0.85.
To G15C A86U belongs 1.92; to A13G A96U, 1.14; to G14U U37C, 1.24.
For G14A U19C, the self-cleavage is 1.44.
On to C17U G74A, for which the self-cleavage amounted to 0.13.
With A13C A95G, the self-cleavage is 1.32.
For G15A A94G, the self-cleavage came to 1.73.
In the case of C17U A116G, the self-cleavage is 0.47.
To A13G C17U belongs 1.46.
Regarding G14U A94G, the self-cleavage came to 1.84.
As to G15A A27G, the self-cleavage was determined as 1.23.
The figure for A13U A94G is 0.55.
To C16U belongs 1.25; to C16G, 0.85; to C16A, 1.69.
On to G15A A56G, for which the self-cleavage is 1.45.
To A13G A118U belongs 0.59; to A13G A118G, 0.96; to U12C A62G, 1.18.
The figure for U12C U97C is 0.65.
On to G14A A33G, for which the self-cleavage was 0.87.
To C16U A69U belongs 0.66; to C16U A69G, 0.74; to C16U U70C, 0.79.
The figure for A13U A60G is 0.32; for C17U A64G it is 0.65.
To C17U A62G belongs 0.91; to G14U A90G, 1.34; to U12C U130C, 0.95.
With A13U A18U, the self-cleavage turned out to be 0.56.
For the variant G14A U72C, the self-cleavage is 0.22.
Consider U12C U38A, for which the self-cleavage amounted to 0.89.
The figure for U12C G84C is 0.31; for A13G U97C it is 0.78.
For the variant A18C A54G, the self-cleavage was determined as 0.89.
To A13U A68C belongs 1.86; to G15C U49C, 1.78; to C17A U43A, 1.18.
To G14C A82G belongs 0.32.
Regarding A13U A56G, the self-cleavage was determined as 1.44.
The figure for C16A G80U is 0.12; for U12C G28A it is 1.29.
A13U A36G: the self-cleavage came out at 0.89.
To A13G U72A belongs 0.23; to C17U G83A, 1.07.
For C17G A54G, the self-cleavage was 0.86.
The figure for C16U A94G is 0.94; for U12G A22G it is 1.13; for G14U C105U it is 0.07.
Take C16A A56G: the self-cleavage is 0.41.
To A13U A66U belongs 1.15.
For G14U A66G, the self-cleavage is 0.9.
As for G14U A135C, the self-cleavage came to 1.41.
Take A13G A24G: the self-cleavage is 1.05.
To C16G A68U belongs 0.89; to C17G U39A, 1.07; to U12C A96G, 1.02.
In the case of A13G A92G, the self-cleavage stood at 1.22.
For U12C A82U, the self-cleavage came to 0.24.
As to U12C A78U, the self-cleavage was 0.34.
The figure for C16G U127A is 2.18; for G15A A114G it is 0.06; for C16U A68G it is 1.42.
Regarding G15C A67G, the self-cleavage was found to be 1.63.
For A13U A116U, the self-cleavage stood at 0.25.
As for C17U U87A, the self-cleavage was found to be 1.37.
Take C17U U87C: the self-cleavage stood at 0.7.
With C16U A95G, the self-cleavage amounted to 1.21.
To C16U G80A belongs 0.1; to C17G G79A, 0.18.
To G15U A126U belongs 0.79; to G14A A59G, 1.27.
The figure for C16U U122C is 1.91.
Regarding A13U A64G, the self-cleavage amounted to 1.04.
To U12C U72C belongs 0.18.
The figure for U12C C45U is 1.85; for G15C U43C it is 1.93.
To A13G C32U belongs 1.2; to C16U A117G, 1.84.
For G14A A118G, the self-cleavage was 0.59.
